Patent US20130022592A1, “Continuous subcutaneous insulin infusion methods with a hyaluronan-degrading enzyme” (priority 2011, published 2013)
“Also recorded” adds a separate entry of the source. Like-named read-outs stand apart in the source and are kept apart here.

Tests used:
[1] = cited from earlier work
[2] = Adverse events (Example 4); assay type: in vivo, human; conditions: eleven evaluable subjects
From the text: 4. […] All were mild and resolved without sequaelae. The most common event was headache (n=4).

[3] = in vivo
Description: (§1) The study was continued to include 15 subjects who completed the study protocol, and was further continued to include 17 subjects who completed the study protocol. The subjects were confined to an inpatient setting for three days of study.
Adverse events were assessed during the course or infusion treatment.

[4] = Blood glucose response to standardized evening meal (Example 3); assay type: in vivo, human; conditions: with vs without rHuPH20
From the text: as §1

[5] = Routine diabetes management, continuous glucose monitoring (Example 4); assay type: in vivo, human; conditions: three patients; rHuPH20 preadministration
Description: The results are depicted below for the first three subjects that completed the study. In addition, continuous glucose monitoring of the three subjects to compare glucose control in routine outpatient diabetes care also was assessed. […] After the clamp experiment the infusion set was changed and the patients discharged. […] To maintain the double-blind study design, a trained professional not otherwise involved in the study administered either rHuPH20 or a sham injection while the patient looked away. After completion of the phase, patients returned to the CRU within 21 days to repeat these steps with the alternate treatment.

[6] = Glucodynamics in euglycemic clamps, rapid acting insulin analog CSII with rHuPH20 or sham injection (Example 4); assay type: in vivo, human
From the text: Patients with type 1 diabetes participated in a randomized, double-blind, 2-way crossover design clinical study comparing the administration of a single hyaluronidase injection at each infusion set change to sham injections in a CSII therapy. The study compared euglycemic clamp endpoints at the beginning and end of 3 days of continuous infusion and glycemic response to a series of four breakfast solid meal challenges. […] In addition, continuous glucose monitoring of the three subjects to compare glucose control in routine outpatient diabetes care also was assessed.
Subjects were released from the CRU the same day.
Subjects returned 3 days later for a second euglycemic clamp after 3 days of continuous infusion. After the clamp experiment the infusion set was changed and the patients discharged. […] Subjects returned to the CRU approximately every 3 days to receive a new infusion set and receive a patient specific standardized breakfast meal and insulin bolus.
(§2) The insulin action profile as a function of time, or glucodynamics, was measured by determining the rate of glucose infusion necessary to maintain euglycemia following the bolus insulin infusion.

[7] = Glucodynamics in euglycemic clamps, NovoLog CSII with or without rHuPH20 pretreatment (Example 3); assay type: in vivo, human; conditions: for faster onset of action with rHuPH20 pretreatment / shorter duration of action with rHuPH20 pretreatment: vs without rHuPH20
Description: The subjects were confined to an inpatient setting for three days of study.
Approximately 2 hours after insertion of the new insulin infusion catheter set, a euglycemic glucose clamp experiment was conducted (1′ clamp). […] Blood glucose was clamped at 90% of the fasting level to suppress endogenous insulin release during the study. A 0.15 U/kg bolus was administered through the insulin pump; and the usual individual basal rate was continued during clamps and PK results are thus baseline-subtracted.
During the euglycemic glucose clamp experiment, the subjects were followed for six (6) hours during which blood was drawn and free insulin levels and glucose infusion rates required to maintain euglycemia were determined.
In each experiment, the subjects were followed for six (6) hours during which blood was drawn and free insulin levels and glucose infusion rates required to maintain euglycemia were determined as described above.
as §2

Lente
Peak ([1]; in vivo): 6 to 12 h

Regular Insulin
Duration ([1]; Table 2, Types of Insulins): 5 to 8 h | onset of action ([1]; administered subcutaneously alone): 30 min

insulin glargine
Duration ([1]; Table 2, Types of Insulins): 28 h | Onset ([1]; Table 2, Types of Insulins): 4 to 6 h | Peak ([1]; Table 2, Types of Insulins): 18 to 28 h

insulin lispro
Duration ([1]; Table 2, Types of Insulins): 3 to 4 h | Onset ([1]; Table 2, Types of Insulins): 0.083 to 0.25 h | Peak ([1]; Table 2, Types of Insulins): 0.75 to 1.5 h

detemir: long-lasting insulin (an analog)
Duration ([1]; Table 2, Types of Insulins): 28 h | Onset ([1]; Table 2, Types of Insulins): 4 to 6 h | Peak ([1]; Table 2, Types of Insulins): 18 to 28 h

B1: rHuPH20: soluble recombinant human PH20 hyaluronidase expressed in CHO cells from nucleic acid encoding amino acids 36-482 of SEQ ID NO:1; mixture of SEQ ID NOS:4-9 (protein, listed as Homo sapiens)
chain: LNFRAPPVIPNVPFLWAWNAPSEFCLGKFDEPLDMSLFSFIGSPRINATGQGVTIFYVDRLGYYPYIDSITGVTVNGGIPQKISLQDHLDKAKKDITFYMPVDNLGMAVIDWEEWRPTWARNWKPKDVYKNRSIELVQQQNVQLSLTEATEKAKQEFEKAGKDFLVETIKLGKLLRPNHLWGYYLFPDCYNHHYKKPGYNGSCFNVEIKRNDDLSWLWNESTALYPSIYLNTQQSPVAATLYVRNRVREAIRVSKIPDAKSPLPVFAYTRIVFTDQVLKFLSQDELVYTFGETVALGASGIVIWGTLSIMRSMKSCLLLDNYMETILNPYIINVTLAAKMCSQVLCQEQGVCIRKNWNSSDYLHLNPDNFAIQLEKGGKFTVRGKPTLEDLEQFSEKFYCSCYSTLSCKEKADVKDTDAVDVCIADGVCIDAFLKPPMETEEPQIFY
modifications: mixture of SEQ ID NOS:4-9; precursor human PH20
Potential local site reactions (in words) [2]: an abdominal bruise; also recorded: pain at the infusion site; also recorded: a stinging sensation during infusion | subjects with adverse events related to CSII infusion sites (in words) [3]: two subjects | reduction in 2 hour glycemic excursion ([4]; 15 completers): 21 mg/dL | reduction in 2 hour glycemic excursion ([4]; 17 completers): 19 mg/dL | outpatient glucose control (in words) [5]: tighter glucose control | differences in onset or duration of action over three days of continuous infusion (in words) ([6]; Example 4, rHuPH20 pretreatment): no significant differences | faster onset of action with rHuPH20 pretreatment ([6]; vs without rHuPH20): 21 min | shorter duration of action with rHuPH20 pretreatment ([6]; vs without rHuPH20): 30 min | faster onset of action with rHuPH20 pretreatment ([7]; 15 completers): 9 min | shorter duration of action with rHuPH20 pretreatment ([7]; 15 completers): 27 min | faster onset of action with rHuPH20 pretreatment ([7]; 17 completers): 9 min | shorter duration of action with rHuPH20 pretreatment ([7]; 17 completers): 27 min | differences in early insulin exposure, onset or duration of action over three days of continuous infusion (in words) ([7]; Example 3, rHuPH20 pretreatment): no significant differences
